Experimental findings from patent publication US8765433B2, “Alcohol dehydrogenases (ADH) useful for fermentive production of lower alkyl alcohols” (priority 2009, dated 2014) are described below.

The term Km denotes the substrate concentration at which the rate is half of its maximum. A word on the kcat: it is the maximal rate divided by the concentration of active sites. Broadly, the kcat/Km is the second-order rate constant that governs catalysis at low substrate concentration.

This data set has as its system CC(C)C=O. Kind of data set: isobutyraldehyde reduction kinetics (A340, initial rates). It counts as biochemical, Mucor circinelloides. The note with it: other: 30° C., pH 7.0, NADH specific. The text has this: This example describes preparation of ADH-gene constructs for over-expression/purification and measurement of enzyme activities using a time-course assay. Horse-liver ADH (HLADH; A-6128) was purchased from Sigma. Achromobacter xylosoxidans SadB (SadB), Saccharomyces cerevisiae ADH6 (ScADH6) and ADH7 (ScADH7), Entamoeba histolytica ADH1 (EhADH1), Bos Taurus Aldehyde Reductase (BtARD), Beijerinckia indica subsp. Indica ATCC 9039 (BiADH), Clostridium beijerinckii ADH (CbADH), Rana perezi ADH8 (RpADH8), Rattus norvegicus ADH1 (RnADH1), Thermus sp. ATN1 ADH (TADH), Phenylobacterium zucineum HLK1 ADH (PzADH), Methylocella silvestris BL2 ADH (MsADH), Acinetobacter baumannii AYE ADH (AbADH), Geobacillus sp. WCH70 ADH (GbADH), Vanderwaltozyma polyspora DSM 70294 ADH (VpADH), Mucor circinelloides ADH (McADH), and Rhodococcus erythropolis PR4ADH (ReADH) were the candidates for which subclones were prepared for protein expression and purification.
As a routine practice, the crude extracts and purified proteins were assayed for butanol oxidation activity, in order to ensure that the recombinant proteins were active throughout the purification process. […] Alcohol oxidation activities were carried out in 50 mM sodium phosphate buffer at pH 8.8 and aldehyde reduction reactions were assayed in 190 mM potassium phosphate buffer at pH 7.0. […]
Kinetic constants of the ADH enzymes were calculated and compared to identify those candidate ADH enzymes with the most desirable properties for the conversion of isobutyraldehyde to isobutanol in the last step of the engineered pathway for isobutanol production. […] The kcat/KM is derived from the individual numbers of kcat and KM and not an experimentally determined value. […]
Seven additional candidate ADH enzymes were synthesized, expressed, and assayed according to methods such as described in Example 2. […] A comparison of KM, KI, and kcat/KM for each candidate enzyme as compared to the same parameter for SadB are given in Table 9 as a percentage of the values determined (Table 7) for SadB. […]

As to “Mucor circinelloides ADH (McADH), SEQ ID NO: 39 (Mucor circinelloides)”, the Km is given as 30 mM, the kcat is 151 s⁻¹ and the kcat/Km was 5000 M⁻¹ s⁻¹.
